Test results taken from paper PMC9482650, “Quantitative fragmentomics allow affinity mapping of interactomes” (Nature Communications, 2022).

Tests used:
Assay in all cases: holdup assay
Parameters in all cases: key: below the threshold = too weak to quantify, mostly under pKd 3.1 to 4
[1] = target: MAST1, Q9Y2H9
[2] = target: T1, SIPA1L2, Q9P2F8
T1 sequence (Q9P2F8 945-1036, limits assumed, looked up): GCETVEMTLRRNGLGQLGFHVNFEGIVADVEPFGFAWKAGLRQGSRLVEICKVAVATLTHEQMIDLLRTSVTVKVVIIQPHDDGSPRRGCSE

[3] = target: T2, PARD3B_1, Q8TEW8
T2 sequence (Q8TEW8 196-299, limits assumed, looked up): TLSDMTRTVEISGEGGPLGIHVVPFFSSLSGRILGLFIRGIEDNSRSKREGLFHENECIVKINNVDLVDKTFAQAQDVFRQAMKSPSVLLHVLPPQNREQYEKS

[4] = target: T3, LNX2_3, Q8N448
T3 sequence (Q8N448 463-564, limits assumed, looked up): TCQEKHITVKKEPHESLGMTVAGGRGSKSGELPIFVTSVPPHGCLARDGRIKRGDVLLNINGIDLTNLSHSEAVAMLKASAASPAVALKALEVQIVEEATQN

[5] = target: TJP2_1, Q9UDY2
[6] = target: T4, TJP3_3, O95049
T4 sequence (O95049 375-456, limits assumed, looked up): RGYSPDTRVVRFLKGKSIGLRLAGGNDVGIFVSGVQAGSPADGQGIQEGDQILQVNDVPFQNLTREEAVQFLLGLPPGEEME

[7] = target: T5, SNTG2, Q9NY99
T5 sequence (Q9NY99 68-166, limits assumed, looked up): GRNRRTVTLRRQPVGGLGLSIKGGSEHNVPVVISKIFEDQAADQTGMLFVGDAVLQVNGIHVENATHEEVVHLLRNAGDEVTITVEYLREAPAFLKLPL

[8] = target: T6, MPP2, Q14168
T6 sequence (Q14168 180-250, limits assumed, looked up): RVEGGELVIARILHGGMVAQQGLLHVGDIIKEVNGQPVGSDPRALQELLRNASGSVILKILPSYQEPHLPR

[9] = target: DLG1_2, Q12959
[10] = target: T7, GRIP1_3, Q9Y3R0
T7 sequence (Q9Y3R0 247-346, limits assumed, looked up): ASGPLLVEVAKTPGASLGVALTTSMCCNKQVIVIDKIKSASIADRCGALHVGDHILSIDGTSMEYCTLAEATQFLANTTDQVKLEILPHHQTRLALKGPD

[11] = target: T8, DFNB31_2, Q9P202
T8 sequence (Q9P202 274-371, limits assumed, looked up): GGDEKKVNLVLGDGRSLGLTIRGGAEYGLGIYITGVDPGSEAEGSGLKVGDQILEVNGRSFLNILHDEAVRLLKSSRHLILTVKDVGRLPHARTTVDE

[12] = target: FRMPD3, Q5JV73
[13] = target: Inadl_5, Q8NI35
[14] = target: T9, ARHGEF11, O15085
T9 sequence (O15085 42-136, limits assumed, looked up): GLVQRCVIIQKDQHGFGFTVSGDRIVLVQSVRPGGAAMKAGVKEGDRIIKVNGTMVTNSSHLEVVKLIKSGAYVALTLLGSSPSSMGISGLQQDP

[15] = target: GRIP2_7, Q9C0E4
[16] = target: MAGI1_2, Q96QZ7
[17] = target: DLG5_1, Q8TDM6
[18] = target: T10, LIN7C, Q9NUP9
T10 sequence (Q9NUP9 88-185, limits assumed, looked up): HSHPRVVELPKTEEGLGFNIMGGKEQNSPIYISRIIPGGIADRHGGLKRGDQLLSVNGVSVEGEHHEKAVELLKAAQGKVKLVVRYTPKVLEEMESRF

[19] = target: TJP1_2, Q07157
[20] = target: MAGI2_4, Q86UL8
[21] = target: T11, DFNB31_1, Q9P202
T11 sequence (Q9P202 135-233, limits assumed, looked up): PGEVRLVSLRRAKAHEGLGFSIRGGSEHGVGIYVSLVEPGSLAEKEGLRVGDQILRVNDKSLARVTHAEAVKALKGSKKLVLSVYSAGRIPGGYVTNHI

[22] = target: GIPC2, Q8TF65
[23] = target: T12, RADIL, Q96JH8
T12 sequence (Q96JH8 971-1071, limits assumed, looked up): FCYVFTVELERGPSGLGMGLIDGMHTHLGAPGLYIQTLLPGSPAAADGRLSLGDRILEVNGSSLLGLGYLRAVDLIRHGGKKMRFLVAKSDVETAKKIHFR

[24] = target: CASK, O14936
[25] = target: FRMPD2_1, Q68DX3
[26] = target: MAGI2_2, Q86UL8
[27] = plain residues with an end cap or a label only (N-terminal biotin on a linker: ado-ado)
[28] = plain residues with an end cap or a label only (N-terminal biotin on a linker: ahx)

Sequence of GIPC2, Q8TF65 (Q8TF65 112-203): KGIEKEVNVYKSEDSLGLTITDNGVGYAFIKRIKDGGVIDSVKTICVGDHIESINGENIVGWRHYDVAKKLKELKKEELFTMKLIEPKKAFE
Sequence of MAGI1_2, Q96QZ7 (Q96QZ7 456-580): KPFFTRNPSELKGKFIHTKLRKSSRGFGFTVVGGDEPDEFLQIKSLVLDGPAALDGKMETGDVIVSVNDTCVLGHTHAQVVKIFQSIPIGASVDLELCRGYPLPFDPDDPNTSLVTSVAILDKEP
Sequence of FRMPD3, Q5JV73 (Q5JV73 12-100): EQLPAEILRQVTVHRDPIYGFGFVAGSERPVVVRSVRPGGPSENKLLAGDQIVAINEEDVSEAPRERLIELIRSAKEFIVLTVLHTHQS
Sequence of DLG1_2, Q12959 (Q12959 314-412): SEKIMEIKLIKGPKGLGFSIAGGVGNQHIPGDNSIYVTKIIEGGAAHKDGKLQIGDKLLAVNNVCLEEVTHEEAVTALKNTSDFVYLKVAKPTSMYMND
Sequence of MAGI2_2, Q86UL8 (Q86UL8 410-522): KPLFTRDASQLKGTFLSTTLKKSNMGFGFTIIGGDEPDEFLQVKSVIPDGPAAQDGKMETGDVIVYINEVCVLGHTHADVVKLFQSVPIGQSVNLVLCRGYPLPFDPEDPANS
Sequence of CASK, O14936 (O14936 487-570): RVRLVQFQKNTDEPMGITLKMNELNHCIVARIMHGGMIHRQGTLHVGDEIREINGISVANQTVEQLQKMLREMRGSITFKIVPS
Sequence of MAST1, Q9Y2H9 (Q9Y2H9 962-1065): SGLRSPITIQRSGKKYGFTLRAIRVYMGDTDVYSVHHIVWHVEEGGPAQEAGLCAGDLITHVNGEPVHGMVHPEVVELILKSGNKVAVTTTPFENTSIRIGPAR
Sequence of Inadl_5, Q8NI35 (Q8NI35 673-780): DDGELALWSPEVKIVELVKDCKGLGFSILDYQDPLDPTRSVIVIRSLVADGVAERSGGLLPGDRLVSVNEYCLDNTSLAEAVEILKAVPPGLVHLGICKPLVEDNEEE
Sequence of TJP2_1, Q9UDY2 (Q9UDY2 24-128): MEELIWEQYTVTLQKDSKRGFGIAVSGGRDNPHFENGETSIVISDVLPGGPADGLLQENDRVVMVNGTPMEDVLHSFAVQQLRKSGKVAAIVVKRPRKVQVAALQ
Sequence of DLG5_1, Q8TDM6 (Q8TDM6 617-713): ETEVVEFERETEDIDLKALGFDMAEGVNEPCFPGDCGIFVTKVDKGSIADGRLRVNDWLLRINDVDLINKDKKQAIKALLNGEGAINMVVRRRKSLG
Sequence of MAGI2_4, Q86UL8 (Q86UL8 772-865): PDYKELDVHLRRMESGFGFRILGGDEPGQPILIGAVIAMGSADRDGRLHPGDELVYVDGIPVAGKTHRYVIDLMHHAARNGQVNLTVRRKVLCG
Sequence of GRIP2_7, Q9C0E4 (Q9C0E4 934-1023): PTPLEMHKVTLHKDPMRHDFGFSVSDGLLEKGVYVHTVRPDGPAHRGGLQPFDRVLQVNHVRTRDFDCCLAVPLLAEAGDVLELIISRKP
Sequence of FRMPD2_1, Q68DX3 (Q68DX3 770-861): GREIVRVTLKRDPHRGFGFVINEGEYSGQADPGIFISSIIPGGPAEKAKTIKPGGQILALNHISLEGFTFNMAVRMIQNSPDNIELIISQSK
Sequence of TJP1_2, Q07157 (Q07157 181-274): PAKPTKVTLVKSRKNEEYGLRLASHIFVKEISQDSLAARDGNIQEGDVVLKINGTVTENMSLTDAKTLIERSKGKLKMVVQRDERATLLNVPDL

B1: EPHA6, Q9UF33 (peptide)
chain: MHIQEKGFHV
pKd [1, 27]: 3.69 | pKd [2, 27]: below the threshold | pKd [3, 27]: 4.89 | pKd [4, 27]: below the threshold | pKd [5, 27]: below the threshold | pKd [6, 27]: below the threshold | pKd [7, 27]: below the threshold | pKd [8, 27]: below the threshold | pKd [9, 27]: below the threshold | pKd [10, 27]: below the threshold | pKd [11, 27]: below the threshold | pKd [12, 27]: below the threshold | pKd [13, 27]: below the threshold | pKd [14, 27]: below the threshold | pKd [15, 27]: 3.93 | pKd [16, 27]: below the threshold | pKd [17, 27]: below the threshold | pKd [18, 27]: below the threshold | pKd [19, 27]: 3.52 | pKd [20, 27]: below the threshold | pKd [21, 27]: below the threshold | pKd [22, 27]: below the threshold | pKd [23, 27]: 3.98 | pKd [24, 27]: below the threshold | pKd [25, 27]: below the threshold | pKd [26, 27]: below the threshold

B2: CACYBP, Q9HB71 (peptide)
chain: EKQAKGDTEF
pKd [1, 28]: below the threshold | pKd [2, 28]: below the threshold | pKd [3, 28]: below the threshold | pKd [4, 28]: below the threshold | pKd [5, 28]: below the threshold | pKd [6, 28]: below the threshold | pKd [7, 28]: below the threshold | pKd [8, 28]: below the threshold | pKd [9, 28]: below the threshold | pKd [10, 28]: below the threshold | pKd [11, 28]: below the threshold | pKd [12, 28]: 3.81 | pKd [13, 28]: below the threshold | pKd [14, 28]: below the threshold | pKd [15, 28]: below the threshold | pKd [16, 28]: below the threshold | pKd [17, 28]: below the threshold | pKd [18, 28]: below the threshold | pKd [19, 28]: below the threshold | pKd [20, 28]: below the threshold | pKd [21, 28]: below the threshold | pKd [22, 28]: below the threshold | pKd [23, 28]: below the threshold | pKd [24, 28]: below the threshold | pKd [25, 28]: below the threshold | pKd [26, 28]: below the threshold

B3: RNF130, Q86XS8 (peptide)
chain: SLNANEVEWF
pKd [1, 27]: 3.96 | pKd [2, 27]: 3.54 | pKd [3, 27]: 4.35 | pKd [4, 27]: below the threshold | pKd [5, 27]: 3.67 | pKd [6, 27]: 3.6 | pKd [7, 27]: below the threshold | pKd [8, 27]: below the threshold | pKd [9, 27]: below the threshold | pKd [10, 27]: below the threshold | pKd [11, 27]: below the threshold | pKd [12, 27]: 4.07 | pKd [13, 27]: 3.51 | pKd [14, 27]: 3.96 | pKd [15, 27]: 3.94 | pKd [16, 27]: below the threshold | pKd [17, 27]: below the threshold | pKd [18, 27]: 3.96 | pKd [19, 27]: 4.2 | pKd [20, 27]: 3.94 | pKd [21, 27]: below the threshold | pKd [22, 27]: below the threshold | pKd [23, 27]: 4.59 | pKd [24, 27]: below the threshold | pKd [25, 27]: below the threshold | pKd [26, 27]: below the threshold

B4: PFKM, P08237 (peptide)
chain: TRKRSGEAAV
pKd [1, 27]: 4.08 | pKd [2, 27]: below the threshold | pKd [3, 27]: below the threshold | pKd [4, 27]: below the threshold | pKd [5, 27]: below the threshold | pKd [6, 27]: below the threshold | pKd [7, 27]: below the threshold | pKd [8, 27]: below the threshold | pKd [9, 27]: 3.95 | pKd [10, 27]: below the threshold | pKd [11, 27]: below the threshold | pKd [12, 27]: below the threshold | pKd [13, 27]: below the threshold | pKd [14, 27]: below the threshold | pKd [15, 27]: below the threshold | pKd [16, 27]: below the threshold | pKd [17, 27]: below the threshold | pKd [18, 27]: below the threshold | pKd [19, 27]: below the threshold | pKd [20, 27]: below the threshold | pKd [21, 27]: below the threshold | pKd [22, 27]: below the threshold | pKd [23, 27]: below the threshold | pKd [24, 27]: below the threshold | pKd [25, 27]: 4 | pKd [26, 27]: 4.09

B5: FOXI1, Q12951 (peptide)
chain: VLYPREGTEV
pKd [1, 27]: 4.74 | pKd [2, 27]: below the threshold | pKd [3, 27]: below the threshold | pKd [4, 27]: below the threshold | pKd [5, 27]: 4 | pKd [6, 27]: 3.48 | pKd [7, 27]: 3.6 | pKd [8, 27]: below the threshold | pKd [9, 27]: 4.84 | pKd [10, 27]: below the threshold | pKd [11, 27]: below the threshold | pKd [12, 27]: below the threshold | pKd [13, 27]: 3.83 | pKd [14, 27]: 4.54 | pKd [15, 27]: below the threshold | pKd [16, 27]: 3.95 | pKd [17, 27]: below the threshold | pKd [18, 27]: 4.26 | pKd [19, 27]: below the threshold | pKd [20, 27]: 4.98 | pKd [21, 27]: 3.8 | pKd [22, 27]: 3.49 | pKd [23, 27]: 3.74 | pKd [24, 27]: below the threshold | pKd [25, 27]: 3.86 | pKd [26, 27]: 3.74
